Data from US8058507B2, “HOPM1 mediated disease resistance to Pseudomonas syringae in Arabidopsis” (priority 2007, dated 2011).

Assays:
[1] = tested on: Pst DC3000 ΔCEL mutant; assay: Bacterial multiplication and disease symptoms in HopM1 transgenic Arabidopsis plants; type: in vivo, Pseudomonas syringae; conditions: protein expressed in transgenic Arabidopsis (Col-0 gl1), DEX-induced
Procedure: Following inoculation, infected plants were monitored daily over a 3- to 4-day period for symptom development and bacterial multiplication. For experiments described in FIGS. 1 and 5, plants were sprayed with 30 μM dexamethasone (DEX) 24 h before bacterial inoculation (1×10^6 cfu/ml).
Leaves were harvested and surface sterilized as follows: 1) whole leaves were removed from a host plant and gently mixed in a 70% ethanol solution for 1 minute. Leaves were blotted briefly on paper towels then rinsed in sterile distilled water for 1 minute, then blotted dry on paper towels. Leaf disks were excised from leaves with a 0.5 cm^2 or smaller cork borer, depending on the size of the sample leaves; 2) leaf disks from the leaves of 2 or more independent replicate plants were pooled for a single tissue sample and placed in a 1.5-mL microfuge tube with 100 μL sterile distilled water, the amount of leaf tissue per tube was recorded as leaf surface area. Three or more samples were harvested for each time point. […] The number of serial dilutions necessary to get countable colonies were determined for each sample, however dilutions to 10^−7 were usually sufficient for any bacterial strain; 7) The samples were plated on the appropriate medium (e.g., Low salt Luria Bertani) supplemented with the necessary antibiotics to select for the specific inoculated bacterial strain. […]

[2] = tested on: Arabidopsis Y2H cDNA library; assay: Yeast two-hybrid (Y2H) screening with HopM1 baits; type: binding; conditions: protein used as bait
From the text: A LexA-based yeast two-hybrid system was used for screening an Arabidopsis Y2H cDNA library using full-length HopM1 and the dominant-negative domain of HopM1 (HopM11-300) as bait, in separate screenings. This system was based upon a pGilda Lex A expression vector (CLONTECHniques, OCTOBER 1999 p. 26-27, Clontech Laboratories Inc.; herein incorporated by reference in its entirety) for expressing HopM1 proteins in combination with a lacZ reporter gene on a separate plasmid that autonomously replicated in yeast (CLONTECHniques, OCTOBER 1999 p. 26-27, Clontech Laboratories Inc.; herein incorporated by reference in its entirety), see below for addition information (see, MATCHMAKER LexA Two-Hybrid System Catalog #K1609-1 and MATCHMAKER LexA Libraries User Manual (PT3040-1) Version It PR67300 and (Yeast Protocols Handbook, Protocol # PT3024-1 Version # PR13103, published 14 Mar. 2001; herein incorporated by reference in its entirety).
hopM1 DNA fragments were amplified by PCR using the primers listed below and standard PCR procedures then fragments were isolated and cloned into a bait vector pGilda Lex A (resistance to ampicillin (100 μg/ml) to E. coli hosts; Protocol # PT3147-5; Version # PR81829; Clontech Laboratories, Inc.; herein incorporated by reference in its entirety). […]

[3] = tested on: AtMIN proteins; assay: Immunoblot of AtMIN proteins co-expressed with HopM1 in yeast; type: cell-based, Arabidopsis thaliana; conditions: co-expression in yeast
From the text: AtMIN fusion proteins expressed from pB42AD were visualized by the HA epitope antibody, as was AtMIN10-HA. HopM1 fusion proteins expressed from pGilda were visualized by the LexA antibody. Coomassie Brilliant Blue-stained gels were used as loading controls. […] AtMIN12 (a putative protein predicted to be targeted to the chloroplast) was not destabilized.
HopM11-300 or full-length HopM1 pGILDA and each individual test AtMIN pB42AD were co-transformed into yeast cells as described in EXAMPLE III.
Immunoblot analysis was then performed on yeast cells lines that expressed one each of the 21 AtMIN proteins co-expressed with either HopM11-300 or full-length HopM1(1-712). […] For comparison, AtMIN12 (a hypothetical protein predicted to be targeted to the chloroplast) was not destabilized (FIG. 6A).

[4] = tested on: AtMIN7; assay: Immunoblot of endogenous AtMIN7 in Arabidopsis leaves infiltrated with ΔCEL mutant bacteria (pORF43); type: in vivo; conditions: HopM1 delivered by 1×10^8 CFU/ml ΔCEL mutant bacteria (pORF43)
Procedure: In brief: leaf disc fractions were homogenized in 1×SDS-polyacrylamide gel electrophoresis (PAGE) sample buffer, boiled for 5 min, and centrifuged for 2 minutes. Proteins in the supernatant were separated on SDS-PAGE gels and transferred to Immobilon-P membrane for immunoblotting procedures (Millipore Corp., Bedford, Mass.).
AtMIN7 is a low-abundance protein in Arabidopsis plants, however it is detected with a rabbit polyclonal antibody, described herein. […] AtMIN7 was absent on the immunoblots of leaves infiltrated with ΔCEL mutant bacteria (pORF43) but not the leaves infiltrated with water or ΔCEL mutant bacteria (FIG. 2C).

B1: full-length HopM1: Pst DC3000 type III effector, 712-aa virulence protein (SEQ ID NO:34) (protein)
chain: MISSRIGGAGGVELSRVNQQHDTVPAQTAHPNAVTAGMNPPLTPDQSGSHATESSSAGAARLNVAARHTQLLQAFKAEHGTAPVSGAPMISSRAALLIGSLLQAEPLPFEVMAEKLSPERYQLKQFQGSDLQQRLEKFAQPGQIPDKAEVGQLIKGFAQSVADQLEHFQLMHDASPATVGQHAKADKATLAVSQTALGEYAGRASKAIGEGLSNSIASLDEHISALDLTLQDAEQGNKESLHADRQALVDAKTTLVGLHADFVKSPEAKRLASVAAHTQLDNVVSDLVTARNTVGGWKGAGPIVAAAVPQFLSSMTHLGYVRLSTSDKLRDTIPETSSDANMLKASIIGMVAGIAHETVNSVVKPMFQAALQKTGLNERLNMVPMKAVDTNTVIPDPFELKSEHGELVKKTPEEVAQDKAFVKSERALLNQKKVQGSSTHPVGELMAYSAFGGSQAVRQMLNDVHQINGQTLSARALASGFGGAVSASSQTLLQLKSNYVDPQGRKIPVFTPDRAESDLKKDLLKGMDLREPSVRTTFYSKALSGIQSSALTSALPPVTAQAEGASGTLSAGAILRNMALAATGSVSYLSTLYTNQSVTAEAKALKAAGMGGATPMLDRTETALNNIRHPNRESLPHTFQKSTLSGIPRVAENAYHMGRGALQLPTQMAVDTVRVVDEGVLNAVASAREALKQPTKDDDALRALEEGLLDPR
modifications: 6xHis tag; Pseudomonas syringae pv. tomato str. DC3000
complementation of the virulence defect (multiplication, disease symptoms) [1]: almost fully complemented | interactors recovered in Y2H screen [2]: failed to recover target interactor host proteins | destabilization of AtMIN proteins in yeast [3]: destabilized | endogenous AtMIN7 protein on immunoblot [4]: absent
